What follows are sequences tested on Escherichia coli TOP10 (assay: shrunken log2 fold change of peptide-encoding DNA abundance (4.5 h post-induction vs induction); higher = less antimicrobial activity (less host growth inhibition)). Conditions: time post-induction: 4.5 h; library: site-saturation at positions 5, 18, 19, 20.
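Further: peptides expressed intracellularly from a pBAD plasmid library in pooled LB shake-flask culture, induced with 0.3% L-arabinose, DNA abundance read by NGS, three biological replicates, DESeq2 with apeglm shrinkage.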

Sequence | shrunken log2 fold change
RRIRGRPPRLPRPRPRPWNYPRP | -0.0902
RRIRYRPPRLPRPRPRPVQGPRP | -0.0822
RRIRDRPPRLPRPRPRPEVMPRP | 0.152
RRIRARPPRLPRPRPRPTEPPRP | 0.797
RRIRSRPPRLPRPRPRPDAVPRP | 0.32
RRIRFRPPRLPRPRPRPGRWPRP | 0.653
RRIRYRPPRLPRPRPRPYNAPRP | -0.471
RRIRMRPPRLPRPRPRPRLQPRP | 0.417
RRIRKRPPRLPRPRPRPHIRPRP | 0.0177
RRIRYRPPRLPRPRPRPNSGPRP | -0.01
RRIRERPPRLPRPRPRPNSYPRP | -0.433
RRIRIRPPRLPRPRPRPRPGPRP | 0.618
RRIRNRPPRLPRPRPRPRCRPRP | 0.104
RRIRSRPPRLPRPRPRPDYQPRP | -0.242
RRIRSRPPRLPRPRPRPRNYPRP | -0.465
RRIRIRPPRLPRPRPRPTSCPRP | -0.0992
RRIRVRPPRLPRPRPRPWHHPRP | 0.0243
RRIRWRPPRLPRPRPRPLVPPRP | -0.000952
RRIRPRPPRLPRPRPRPRPLPRP | 0.627
RRIRNRPPRLPRPRPRPEWNPRP | 0.0541
RRIRMRPPRLPRPRPRPADEPRP | -0.0062
RRIRVRPPRLPRPRPRPYFRPRP | -0.153
RRIRHRPPRLPRPRPRPGFIPRP | 0.043
RRIRGRPPRLPRPRPRPYQEPRP | 0.0063
RRIRHRPPRLPRPRPRPQYGPRP | -0.0192

Sequence | shrunken log2 fold change
RRIRRRPPRLPRPRPRPGNHPRP | 0.0323
RRIRPRPPRLPRPRPRPVKSPRP | -0.0156
RRIRPRPPRLPRPRPRPRNPPRP | 0.405
RRIRWRPPRLPRPRPRPGSCPRP | 0.389
RRIRGRPPRLPRPRPRPSGRPRP | 0.522
RRIRVRPPRLPRPRPRPQPWPRP | 0.152
RRIRFRPPRLPRPRPRPSRQPRP | -0.0117
RRIRARPPRLPRPRPRPNDCPRP | 0.0748
RRIRMRPPRLPRPRPRPNGAPRP | 0.0765
RRIRDRPPRLPRPRPRPKRQPRP | -0.0603
RRIRWRPPRLPRPRPRPPPNPRP | 0.928
RRIRYRPPRLPRPRPRPGVIPRP | -0.297
RRIRARPPRLPRPRPRPRGTPRP | 0.448
RRIRTRPPRLPRPRPRPKNLPRP | -0.143
RRIRHRPPRLPRPRPRPRFIPRP | -0.135
RRIRPRPPRLPRPRPRPEAYPRP | 0.00183
RRIRLRPPRLPRPRPRPDSKPRP | -0.24
RRIRLRPPRLPRPRPRPQCRPRP | 0.0156
RRIRPRPPRLPRPRPRPYSGPRP | -0.524
RRIRCRPPRLPRPRPRPCEAPRP | -0.369
RRIRIRPPRLPRPRPRPRYPPRP | -0.0444
RRIRERPPRLPRPRPRPPHAPRP | 0.229
RRIRMRPPRLPRPRPRPACAPRP | 0.837
RRIRYRPPRLPRPRPRPTLNPRP | -0.54
RRIRPRPPRLPRPRPRPWDNPRP | -0.00581

Sequence | shrunken log2 fold change
RRIRFRPPRLPRPRPRPADEPRP | 0.173
RRIRCRPPRLPRPRPRPLDRPRP | -0.478
RRIRKRPPRLPRPRPRPDSGPRP | -0.00213
RRIRHRPPRLPRPRPRPGAFPRP | 0.175
RRIRHRPPRLPRPRPRPKNSPRP | -0.487
RRIRTRPPRLPRPRPRPNYLPRP | -0.66
RRIRYRPPRLPRPRPRPYHGPRP | -0.139
RRIRFRPPRLPRPRPRPHNAPRP | -0.54
RRIRDRPPRLPRPRPRPLECPRP | 0.0215
RRIRERPPRLPRPRPRPHMFPRP | -0.749
RRIRWRPPRLPRPRPRPCFNPRP | -0.382
RRIRLRPPRLPRPRPRPCMMPRP | -0.225
RRIRERPPRLPRPRPRPIKAPRP | -0.00435
RRIRIRPPRLPRPRPRPMPEPRP | -0.11
RRIRDRPPRLPRPRPRPHATPRP | 0.985
RRIRRRPPRLPRPRPRPNIWPRP | 0.134
RRIRLRPPRLPRPRPRPHSRPRP | -0.0563
RRIRLRPPRLPRPRPRPSPWPRP | -0.149
RRIRKRPPRLPRPRPRPQTIPRP | 0.0582
RRIRDRPPRLPRPRPRPHCTPRP | -0.0502
RRIRTRPPRLPRPRPRPILDPRP | 0.0371
RRIRGRPPRLPRPRPRPFWSPRP | 0.679
RRIRGRPPRLPRPRPRPWRCPRP | 0.0546
RRIRPRPPRLPRPRPRPEPWPRP | 0.232
RRIRQRPPRLPRPRPRPMHSPRP | -0.165

Sequence | shrunken log2 fold change
RRIRIRPPRLPRPRPRPRAHPRP | -0.201
RRIRPRPPRLPRPRPRPQDLPRP | -0.13
RRIRLRPPRLPRPRPRPCEYPRP | 0.0103
RRIRHRPPRLPRPRPRPVKTPRP | -0.164
RRIRARPPRLPRPRPRPKCTPRP | 0.316
RRIRSRPPRLPRPRPRPLRMPRP | 0.0358
RRIRSRPPRLPRPRPRPPPCPRP | 0.408
RRIRGRPPRLPRPRPRPWDEPRP | 0.0077
RRIRQRPPRLPRPRPRPTYYPRP | -0.524
RRIRERPPRLPRPRPRPKVCPRP | -0.0496
RRIRDRPPRLPRPRPRPKNHPRP | -0.195
RRIRARPPRLPRPRPRPQVMPRP | -0.00224
RRIRHRPPRLPRPRPRPMMAPRP | 0.183
RRIRFRPPRLPRPRPRPSPMPRP | 1.17
RRIRDRPPRLPRPRPRPEACPRP | 0.644
RRIRMRPPRLPRPRPRPYLSPRP | -0.0214
RRIRGRPPRLPRPRPRPVIKPRP | 0.0737
RRIRQRPPRLPRPRPRPDPAPRP | 0.0492
RRIRSRPPRLPRPRPRPKLVPRP | -0.0443
RRIRIRPPRLPRPRPRPYIPPRP | -0.92
RRIRMRPPRLPRPRPRPKWPPRP | 1.18
RRIRWRPPRLPRPRPRPIPEPRP | -0.0356
RRIRGRPPRLPRPRPRPEPIPRP | 0.296
RRIRDRPPRLPRPRPRPHMWPRP | 0.0299
RRIRLRPPRLPRPRPRPQMWPRP | 0.0549

Sequence | shrunken log2 fold change
RRIRHRPPRLPRPRPRPSFYPRP | -1.09
RRIRMRPPRLPRPRPRPWLWPRP | 0.0882
RRIRVRPPRLPRPRPRPTLHPRP | 0.195
RRIRPRPPRLPRPRPRPLCMPRP | -0.444
RRIRVRPPRLPRPRPRPAMTPRP | 0.0589
RRIRKRPPRLPRPRPRPRYKPRP | 0.15
RRIRHRPPRLPRPRPRPAHKPRP | -0.0386
RRIRPRPPRLPRPRPRPIDKPRP | -0.188
RRIRVRPPRLPRPRPRPRWGPRP | 0.157
RRIRNRPPRLPRPRPRPVREPRP | 0.249
RRIRQRPPRLPRPRPRPWGKPRP | -0.103
RRIRMRPPRLPRPRPRPYAVPRP | -0.0789
RRIRDRPPRLPRPRPRPMSNPRP | -0.0263
RRIRKRPPRLPRPRPRPGYIPRP | 0.0313
RRIRMRPPRLPRPRPRPKPQPRP | 1.41
RRIRLRPPRLPRPRPRPWGIPRP | -0.198
RRIRFRPPRLPRPRPRPIHGPRP | -0.0163
RRIRNRPPRLPRPRPRPIQCPRP | -0.01
RRIRYRPPRLPRPRPRPCPIPRP | 0.0143
RRIRPRPPRLPRPRPRPFARPRP | 0.206
RRIRARPPRLPRPRPRPKLNPRP | 0.16
RRIRHRPPRLPRPRPRPRLIPRP | -0.0786
RRIRQRPPRLPRPRPRPSMHPRP | -0.0647
RRIRARPPRLPRPRPRPCYHPRP | -0.0657
RRIRSRPPRLPRPRPRPCTEPRP | -0.241

Sequence | shrunken log2 fold change
RRIRCRPPRLPRPRPRPVQRPRP | 0.123
RRIRSRPPRLPRPRPRPRKDPRP | 0.271
RRIRARPPRLPRPRPRPGEFPRP | 0.388
RRIRCRPPRLPRPRPRPDWGPRP | -0.134
RRIRHRPPRLPRPRPRPLIIPRP | -0.377
RRIRSRPPRLPRPRPRPSCIPRP | -0.223
RRIRFRPPRLPRPRPRPEIYPRP | 0.0026
RRIRVRPPRLPRPRPRPYCAPRP | -0.229
RRIRNRPPRLPRPRPRPKHQPRP | 0.124
RRIRCRPPRLPRPRPRPSCGPRP | -0.103
RRIRERPPRLPRPRPRPKHSPRP | 0.111
RRIRKRPPRLPRPRPRPLGTPRP | 0.388
RRIRQRPPRLPRPRPRPRAGPRP | 0.389
RRIRIRPPRLPRPRPRPFFIPRP | -0.641
RRIRGRPPRLPRPRPRPQTQPRP | 2.07
RRIRWRPPRLPRPRPRPSRSPRP | 0.0592
RRIRGRPPRLPRPRPRPYLCPRP | 0.0395
RRIRKRPPRLPRPRPRPLARPRP | 0.213
RRIRWRPPRLPRPRPRPYPQPRP | -0.361
RRIRTRPPRLPRPRPRPWHHPRP | 0.0255
RRIRHRPPRLPRPRPRPDFQPRP | -0.00193
RRIRLRPPRLPRPRPRPCRSPRP | -0.0599
RRIRTRPPRLPRPRPRPHRNPRP | -0.677
RRIRPRPPRLPRPRPRPKCFPRP | 0.434
RRIRCRPPRLPRPRPRPRPEPRP | 0.44

From the supplement of paper PMC9112550, “Optimization of the antimicrobial peptide Bac7 by deep mutational scanning” (BMC Biology, 2022)
